± gives the uncertainty stated by the source.
Assay: amyloid nucleation score (Sup35N fusion, yeast selection) (log enrichment); library NNK3; higher = more nucleation; inactive = no reads after selection
Outline: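 DiMSum was used to calculate nucleation scores as log enrichment of output over input reads, centred on the mode score of non-aggregating sequences. Sequences with fewer than 100 input reads were not scored. Input and output came from Illumina sequencing of plasmid inserts in psi-negative yeast expressing peptides of 20 random codons fused to Sup35N, induced 24 hours with 100 μM copper sulfate and then grown 7 days at 30°C on medium lacking adenine and uracil.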

Substance | amyloid nucleation score
CWSRMNSVDAIYK | inactive
TSIMSKGGGSYLSWNWHGWL | inactive
DVNHVMNMNIGSNRN | inactive
FVKLIYWLGAWVSTLCG | inactive
FPFSYVYSR | inactive
SPQFELLDITKPCRT | inactive
TILWGLQTQTQNCVVWKLGR | 1.69 ± 0.12
YSGIRVLFYFSISDDFSQSI | 0.756 ± 0.24
SSWNTTYMESSVPVGYLFRI | inactive
LNACSGFTFLFNRVVIKVIL | -0.42 ± 0.8
IKATWRSFMCVIFNLLLLP | -0.184 ± 1.3
ISQCVCSSYA | -0.265 ± 0.7
FCHRYEMYIELTYTEGA | inactive
SMNFLLLISMCNLWPSYAAL | 1.36 ± 0.14
IFVFLHLHLIWFYSSSWLMD | inactive
YGWVVSSLCYGKFYICIWNL | 0.797 ± 0.22
SFGLWTGFGVMYVRIVDVTH | inactive
VMLNLQI | 1.18 ± 0.17
GISTGISWQLCGHSGDWYWW | -0.658 ± 1.9
SQFQGAMMYFCEEMCICFFC | 2.01 ± 0.097
GFSLFYYL | inactive

Substance | amyloid nucleation score
IGKKVCMCRDKGGLIGLRGG | inactive
RSSWK | inactive
TNRIHPFERVLFVCVSGQGV | inactive
VFVMPDDNVC | inactive
TYLCGFHLYCC | inactive
VCQESPSEIGES | inactive
SSRRPWIIGSMST | inactive
DIRYLNNFDSCQYGRGFLAA | inactive
LLVSIFLGYPQ | inactive
CYFTASCLWMNANIDVSLSK | inactive
SGTGNGKIPMDRSVSDCVRE | 0.035 ± 0.37
VFEDNDLCELINDVILEHHR | inactive
RCVIALMLYVILGMNGWKAS | inactive
PNFLRTCLLTYRGRSY | inactive
NDASPLFSKGVLDFLSTKSL | inactive
LVYCFAYRVVHSNCHLESC | inactive
GERFAVTSVSDHVTDKKTLS | 1.77 ± 0.093
YRIESFIGY | inactive
WCCFSWKVLRHGLTSACGC | 1.31 ± 0.11
NDMFRVSCSQNSESQYNLNG | inactive
WTIDTD | inactive

Substance | amyloid nucleation score
CMFYLLVSLPWVAVTSVLRV | inactive
AFVKFSRTWSSVSSLCGFQA | inactive
TRISTG | inactive
IYPLV | inactive
IPLDRMCFFSMK | inactive
YSNGASLVWLVNVKK | 2.19 ± 0.083
NDTFVY | inactive
IKCMNTLTDCCGMV | inactive
VPKAYR | inactive
IEFMCLHGKVTLITIVF | inactive
LMFEL | inactive
KVIRESVKSLRHFKFAWLLS | inactive
NYDIASLFTTNKSFV | inactive
RSVGYRTAVMRHLYIMMN | inactive
CNDFNSYVRCYIMSNNFFRY | inactive
QFKYHYYNLCWSTSVFSFKN | 0.837 ± 0.22
SKPLYNSWIPMCLLFKVPPF | inactive
RFIVHIYNMN | 2.59 ± 0.059
TNVCLRRFLVTSLNGWVDGN | inactive
HLRFFLRVVGRTFIFCHS | inactive
NINSTFQRQVLSDCLVQWYM | inactive

Substance | amyloid nucleation score
SLPWVIF | inactive
RPAHVIICYNLSYCNKWLHS | 2.04 ± 0.071
YGYSVPGKIEFYVGVIGRNP | 1.2 ± 0.085
SENMTGFLNRTSIISPWTYC | inactive
TNVSKLLIMSFVCSIHRSHG | 0.816 ± 0.18
LSLNLRYHQPVNWNSRDTCL | 1.31 ± 0.12
YGIVYSCCIVSVIEDFKLLK | 2.57 ± 0.082
KKVNDML | inactive
VQGTILRSRQNCTL | 0.308 ± 0.48
SVLCMGLHEIQYIRRFCRHW | inactive
IYYNHVVI | inactive
NVNGSFKI | inactive
LLLSTRID | inactive
LLVMGFCRVLCDLGGRYVRV | inactive
MIMINVISQCKCAGWGGNRA | 3.36 ± 0.053
LSTYPDI | inactive
VTMMLVMLFSQMFSFLAFVN | inactive
ALFYHFL | inactive
GWVIDRLYGDDMSSILEL | inactive

— the supplement of paper PMC12042874
